Experimental data taken from patent publication US20210171647A1 (WUXI BIOLOGICS SHANGHAI, published 2021).
Residue numbers refer to the chain shown, from its start.

Legend:
Test in all cases: ELISA, antibody coated, OX40-ECD.His mutant supernatant; relative to silent alanine substitutions;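 further: captured OX40 mutant protein detected with HRP-labelled anti-His antibody, absorbance read-out, scaled to the mean signal of control mutants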
human OX40-ECD.His V106A = molecular target: T1, human OX40-ECD.His V106A (human, UniProt P43489 29-214)
T1 construct: extracellular domain; not shown: C-terminal His-tag
T1 sequence (looked up): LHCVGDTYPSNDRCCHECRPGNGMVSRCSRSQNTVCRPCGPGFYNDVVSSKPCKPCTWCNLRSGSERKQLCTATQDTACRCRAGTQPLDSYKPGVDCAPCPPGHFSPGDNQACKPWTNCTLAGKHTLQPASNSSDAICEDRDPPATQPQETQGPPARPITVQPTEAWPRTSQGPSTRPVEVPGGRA

human OX40-ECD.His R95A = molecular target: T2, human OX40-ECD.His R95A (human, UniProt P43489 29-214)
T2 construct: extracellular domain; not shown: C-terminal His-tag
T2 sequence (looked up): T1 sequence (looked up) with R67A, A78V

human OX40-ECD.His V123A = molecular target: T3, human OX40-ECD.His V123A (human, UniProt P43489 29-214)
T3 construct: extracellular domain; not shown: C-terminal His-tag
T3 sequence (looked up): T1 sequence (looked up) with A78V, V95A

human OX40-ECD.His L98A = molecular target: T4, human OX40-ECD.His L98A (human, UniProt P43489 29-214)
T4 construct: extracellular domain; not shown: C-terminal His-tag
T4 sequence (looked up): T1 sequence (looked up) with L70A, A78V

human OX40-ECD.His S91A = molecular target: T5, human OX40-ECD.His S91A (human, UniProt P43489 29-214)
T5 construct: extracellular domain; not shown: C-terminal His-tag
T5 sequence (looked up): T1 sequence (looked up) with S63A, A78V

human OX40-ECD.His L29A = molecular target: T6, human OX40-ECD.His L29A (human, UniProt P43489 29-214)
T6 construct: extracellular domain; not shown: C-terminal His-tag
T6 sequence (looked up): T1 sequence (looked up) with L1A, A78V

human OX40-ECD.His R47A = molecular target: T7, human OX40-ECD.His R47A (human, UniProt P43489 29-214)
T7 construct: extracellular domain; not shown: C-terminal His-tag
T7 sequence (looked up): T1 sequence (looked up) with R19A, A78V

human OX40-ECD.His P66A = molecular target: T8, human OX40-ECD.His P66A (human, UniProt P43489 29-214)
T8 construct: extracellular domain; not shown: C-terminal His-tag
T8 sequence (looked up): T1 sequence (looked up) with P38A, A78V

human OX40-ECD.His A111G = molecular target: T9, human OX40-ECD.His A111G (human, UniProt P43489 29-214)
T9 construct: extracellular domain; not shown: C-terminal His-tag
T9 sequence (looked up): T1 sequence (looked up) with A78V, A83G

human OX40-ECD.His P115A = molecular target: T10, human OX40-ECD.His P115A (human, UniProt P43489 29-214)
T10 construct: extracellular domain; not shown: C-terminal His-tag
T10 sequence (looked up): T1 sequence (looked up) with A78V, P87A

- Fold Change (human OX40-ECD.His V106A): 0.662
- Fold Change (human OX40-ECD.His R95A): 0.996
- Fold Change (human OX40-ECD.His V123A): 1
- Fold Change (human OX40-ECD.His L98A): 1.01
- Fold Change (human OX40-ECD.His S91A): 0.886
- Fold Change (human OX40-ECD.His L29A): 1
- Fold Change (human OX40-ECD.His R47A): 1
- Fold Change (human OX40-ECD.His P66A): 0.913
- Fold Change (human OX40-ECD.His A111G): 0.853
- Fold Change (human OX40-ECD.His P115A): 0.632
B1: 1.134.9-u1-IgG1L (antibody, V domains shown)
VH: QVQLQESGPGLVKPSGTLSLTCAVSGGSISSYNWWSWVRQPPGKGLEWIGEIYHGGNTNYNPSLKSRVTMSVDNSKNQFSLKLSSVTAADTAVYYCARAPGDWGGSPYFDFWGQGTLVTVSS
VL: SSELTQDPAVSVALGQTVRITCQGDNLRTYYASWYQQKPGQAPILLIYGRNKRPSGIPDRFSGSSSGNTASLTITGAQAEDEAAYYCNSRDSSGNPVVFGGGTKLTVL
notes: fully human IgG1, lambda
